Substitutions are numbered along the chain they refer to.
Target: T1, CTLA4 (UniProt P16410 36-223, limits assumed)
T1 sequence (looked up): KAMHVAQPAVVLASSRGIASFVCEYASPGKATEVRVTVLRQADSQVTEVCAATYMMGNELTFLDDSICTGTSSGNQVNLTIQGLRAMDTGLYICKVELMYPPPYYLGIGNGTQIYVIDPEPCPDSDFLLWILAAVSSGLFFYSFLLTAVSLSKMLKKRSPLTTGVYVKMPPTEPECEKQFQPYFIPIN
Test: cell-based or functional assay

B1: de-prodrugged Antibody A1 (antibody, human IgG1, kappa, V domains shown)
VH: QVQLVESGGGVVQPGRSLRLSCAASGFTFSSYTMHWVRQAPGKGLEWVTFISYDGNCKYYADSVKGRFTISRDNSKNTLYLQMNSLRAEDTAIYYCARTGWLGPFDYWGQGTLVTVSS
VL: not shown
modifications: succinimide residue (or its ring-opened derivative) left on the substituted-in Cys of VH CDR2 after cleavage of the linker
For B1, the “IL-2 secretion by SEB-stimulated PBMC (HTRF)” value (from here on “IL-2 secretion”) was ~3 fold.

B2: de-prodrugged Antibody D1 (antibody, human IgG1, kappa, V domains shown)
VH: B1 VH with C57N
VL: not shown
modifications: succinimide residue (or its ring-opened derivative) left on Cys 53 of SEQ ID NO:10 after cleavage of the linker
B2 was tested, and the “IL-2 secretion” value was ~3 fold.

B3: de-prodrugged Antibody E1 (antibody, human IgG1, kappa, V domains shown)
VH: B1 VH with C57N
VL: not shown
modifications: succinimide residue (or its ring-opened derivative) left on Cys 57 of SEQ ID NO:10 after cleavage of the linker
In the case of B3, the “IL-2 secretion” value is reported as ~3 fold.

B4: de-prodrugged Antibody C1 (antibody, human IgG1, kappa, V domains shown)
VH: B1 VH with C57N
VL: not shown
modifications: succinimide residue (or its ring-opened derivative) left on Cys 31 of SEQ ID NO:10 after cleavage of the linker
In the case of B4, the “IL-2 secretion” value is reported as ~3 fold.

B5: de-prodrugged Antibody B1 (antibody, human IgG1, kappa, V domains shown)
VH: B1 VH with C57N
VL: not shown
modifications: succinimide residue (or its ring-opened derivative) left on Cys 28 of SEQ ID NO:10 after cleavage of the linker
B5 was tested, and the “IL-2 secretion” value was ~3 fold.

— patent US20220251206A1 (Bristol-Myers Squibb, published 2022)
